{"source": "paper doi:10.1101/2025.04.04.647053", "about": "(bioRxiv, 2025)", "proteins": {"B1": {"name": "AND-1 (natural protein, H. sapiens, UniProt O75717 1-1129, looked up)", "chain": "MPATRKPMRYGHTEGHTEVCFDDSGSFIVTCGSDGDVRIWEDLDDDDPKFINVGEKAYSCALKSGKLVTAVSNNTIQVHTFPEGVPDGILTRFTTNANHVVFNGDGTKIAAGSSDFLVKIVDVMDSSQQKTFRGHDAPVLSLSFDPKDIFLASASCDGSVRVWQISDQTCAISWPLLQKCNDVINAKSICRLAWQPKSGKLLAIPVEKSVKLYRRESWSHQFDLSDNFISQTLNIVTWSPCGQYLAAGSINGLIIVWNVETKDCMERVKHEKGYAICGLAWHPTCGRISYTDAEGNLGLLENVCDPSGKTSSSKVSSRVEKDYNDLFDGDDMSNAGDFLNDNAVEIPSFSKGIINDDEDDEDLMMASGRPRQRSHILEDDENSVDISMLKTGSSLLKEEEEDGQEGSIHNLPLVTSQRPFYDGPMPTPRQKPFQSGSTPLHLTHRFMVWNSIGIIRCYNDEQDNAIDVEFHDTSIHHATHLSNTLNYTIADLSHEAILLACESTDELASKLHCLHFSSWDSSKEWIIDLPQNEDIEAICLGQGWAAAATSALLLRLFTIGGVQKEVFSLAGPVVSMAGHGEQLFIVYHRGTGFDGDQCLGVQLLELGKKKKQILHGDPLPLTRKSYLAWIGFSAEGTPCYVDSEGIVRMLNRGLGNTWTPICNTREHCKGKSDHYWVVGIHENPQQLRCIPCKGSRFPPTLPRPAVAILSFKLPYCQIATEKGQMEEQFWRSVIFHNHLDYLAKNGYEYEESTKNQATKEQQELLMKMLALSCKLEREFRCVELADLMTQNAVNLAIKYASRSRKLILAQKLSELAVEKAAELTATQVEEEEEEEDFRKKLNAGYSNTATEWSQPRFRNQVEEDAEDSGEADDEEKPEIHKPGQNSFSKSTNSSDVSAKSGAVTFSSQGRVNPFKVSASSKEPAMSMNSARSTNILDNMGKSSKKSTALSRTTNNEKSPIIKPLIPKPKPKQASAASYFQKRNSQTNKTEEVKEENLKNVLSETPAICPPQNTENQRPKTGFQMWLEENRSNILSDNPDFSDEADIIKEGMIRFRVLSTEERKVWANKAKGETASEGTEAKKRKRVVDESDETENQEEKAKENLNLSKKQKPLDFSTNQKLSAFAFKQE"}}, "molecular_target": "the molecule itself", "assay": "cryo-EM structure"}
{"protein": "B1", "values": [{"measurement": "stoichiometry N", "result": 3}]}
